Assay results: PMC3226451

Assays:
[1] = molecular target: L19-UG-TNFRII (human) (UniProt P20333); assay: SDS-PAGE, non-reducing; SDS-PAGE 4%-12% of purified L19-UG-TNFRII under non-reducing conditions
[2] = molecular target: L19-UG-TNFRII (human) (UniProt P20333); assay: SEC; Superdex 200 (S200) FPLC of purified L19-UG-TNFRII in native conditions

L19-UG-TNFRII (from UniProt P20333 23-257)
stoichiometry N [1]: 2
stoichiometry N [2]: 2
